From patent US10428140B2, “Anti-EphA4 antibody” (EISAI R&D MANAGEMENT CO., LTD., priority 2015, dated 2019)
Residue numbers refer to the chain shown, from its start.

B1: 133 (antibody, V domains shown)
VH: QVQLVQSGSELKKPGASVKVSCKASGYTFTDYSMHWVRQAPGQGLEWMGWINTETGEPTYAQGFTGRFVFSLDTSVSTAYLQISSLKAEDTAVYYCARIPLYYYGSRYWYFDVWGQGTTVTVSS
VL: EIVMTQSPATLSVSPGERATLSCRASENIYRNLAWYQQKPGQSPRLLIYAATNLADGIPARFSGSGSGTEYTLTISSLQSEDFAVYYCQHFWGTPWTFGQGTKVEIK
modifications: synthetic humanized antibody heavy chain variable region sequence; synthetic humanized antibody light chain variable region sequence
B2: 78 (antibody, V domains shown)
VH: B1 VH with E46K, Q62D, G63D, T65K
VL: DIQMTQSPSSLSASVGDRVTITCRASENIYRNLAWYQQKPGKAPKLLVYAATNLADGVPSRFSGSGSGTDYTLTISSLQPEDFATYYCQHFWGTPWTFGQGTKVEIK
modifications: synthetic humanized antibody heavy chain variable region sequence; synthetic humanized antibody light chain variable region sequence
B3: 75 (antibody)
VH: B1 VH
VL: B2 VL
chain: ASTKGPSVFPLAPSSKSTSGGTAALGCLVKDYFPEPVTVSWNSGALTSGVHTFPAVLQSSGLYSLSSVVTVPSSSLGTQTYICNVNHKPSNTKVDKRVEPKSCDKTHTCPPCPAPPAAAPSVFLFPPKPKDTLMISRTPEVTCVVVDVSHEDPEVQFNWYVDGVEVHNAKTKPREEQFNSTFRVVSVLTVVHQDWLNGKEYKCKVSNKGLPAPIEKTISKTKGQPREPQVYTLPPSREEMTKNQVSLTCLVKGFYPSDIAVEWESNGQPENNYKTTPPMLDSDGSFFLYSKLTVDKSRWQQGNVFSCSVMHEALHNHYTQKSLSLSPG
modifications: synthetic humanized antibody heavy chain variable region sequence; synthetic humanized antibody light chain variable region sequence; synthetic antibody constant region sequence
B4: 76 (antibody, V domains shown)
VH: B1 VH with E46K
VL: B2 VL
modifications: synthetic humanized antibody heavy chain variable region sequence; synthetic humanized antibody light chain variable region sequence
B5: 67 (antibody, V domains shown)
VH: B1 VH with V2I, E46K
VL: B2 VL
modifications: synthetic humanized antibody heavy chain variable region sequence; synthetic humanized antibody light chain variable region sequence
B6: 134 (antibody, V domains shown)
VH: B1 VH with E46K
VL: B1 VL
modifications: synthetic humanized antibody heavy chain variable region sequence; synthetic humanized antibody light chain variable region sequence
B7: 135 (antibody, V domains shown)
VH: B1 VH with Q62D, G63D, T65K
VL: B1 VL
modifications: synthetic humanized antibody heavy chain variable region sequence; synthetic humanized antibody light chain variable region sequence
B8: 136 (antibody, V domains shown)
VH: B1 VH with E46K, Q62D, G63D, T65K
VL: B1 VL
modifications: synthetic humanized antibody heavy chain variable region sequence; synthetic humanized antibody light chain variable region sequence
B9: 77 (antibody, V domains shown)
VH: B1 VH with Q62D, G63D, T65K
VL: B2 VL
modifications: synthetic humanized antibody heavy chain variable region sequence; synthetic humanized antibody light chain variable region sequence
B10: 156 (antibody, V domains shown)
VH: B1 VH with V2I, E46K
VL: B2 VL with K45Q, V48L
modifications: synthetic humanized antibody heavy chain variable region sequence; synthetic humanized antibody light chain variable region sequence
B11: 132 (antibody, V domains shown)
VH: B1 VH with V2I, E46K
VL: B1 VL
modifications: synthetic humanized antibody heavy chain variable region sequence; synthetic humanized antibody light chain variable region sequence

Key:
Assay in all cases: Selectivity ELISA of humanized antibodies for human Eph receptor
Assay type in all cases: binding
Details in all cases: coated protein 1 nM
human EphA1 = molecular target: T1, human EphA1 (Homo sapiens, UniProt P21709)
T1 construct: a protein of the extracellular region of each human Eph receptor fused with the SEAP protein and the His tag; made in house; host or cells: Expi293F cells (culture supernatant)
T1 sequence (P21709 26-547 limits assumed): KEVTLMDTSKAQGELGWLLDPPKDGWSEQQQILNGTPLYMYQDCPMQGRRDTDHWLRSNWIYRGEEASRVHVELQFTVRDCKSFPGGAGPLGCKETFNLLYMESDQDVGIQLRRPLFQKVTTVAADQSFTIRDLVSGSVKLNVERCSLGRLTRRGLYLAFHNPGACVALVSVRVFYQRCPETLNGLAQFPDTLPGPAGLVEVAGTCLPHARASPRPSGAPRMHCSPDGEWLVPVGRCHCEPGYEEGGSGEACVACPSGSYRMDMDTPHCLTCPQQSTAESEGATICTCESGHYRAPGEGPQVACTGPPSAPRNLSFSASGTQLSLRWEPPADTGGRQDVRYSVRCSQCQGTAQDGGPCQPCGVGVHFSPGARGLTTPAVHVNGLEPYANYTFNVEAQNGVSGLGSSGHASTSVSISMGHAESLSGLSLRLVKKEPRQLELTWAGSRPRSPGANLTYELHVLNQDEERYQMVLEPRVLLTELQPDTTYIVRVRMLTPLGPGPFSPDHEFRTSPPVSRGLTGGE
Summary of the method: (§1)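 Extracellular domains of human Eph receptors fused to SEAP-His were expressed in Expi293F cells for 5 days and captured from supernatant (1 nM final) on anti-His-coated plates. Humanized anti-EphA4 antibodies were incubated 1 h at room temperature, then HRP anti-IgG secondary, TMB substrate, and absorbance at 450 nm.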

human EphA6 = molecular target: T2, human EphA6 (Homo sapiens, UniProt Q9UF33)
T2 construct: a protein of the extracellular region of each human Eph receptor fused with the SEAP protein and the His tag; made in house; host or cells: Expi293F cells (culture supernatant)
T2 sequence (Q9UF33 23-550 limits assumed): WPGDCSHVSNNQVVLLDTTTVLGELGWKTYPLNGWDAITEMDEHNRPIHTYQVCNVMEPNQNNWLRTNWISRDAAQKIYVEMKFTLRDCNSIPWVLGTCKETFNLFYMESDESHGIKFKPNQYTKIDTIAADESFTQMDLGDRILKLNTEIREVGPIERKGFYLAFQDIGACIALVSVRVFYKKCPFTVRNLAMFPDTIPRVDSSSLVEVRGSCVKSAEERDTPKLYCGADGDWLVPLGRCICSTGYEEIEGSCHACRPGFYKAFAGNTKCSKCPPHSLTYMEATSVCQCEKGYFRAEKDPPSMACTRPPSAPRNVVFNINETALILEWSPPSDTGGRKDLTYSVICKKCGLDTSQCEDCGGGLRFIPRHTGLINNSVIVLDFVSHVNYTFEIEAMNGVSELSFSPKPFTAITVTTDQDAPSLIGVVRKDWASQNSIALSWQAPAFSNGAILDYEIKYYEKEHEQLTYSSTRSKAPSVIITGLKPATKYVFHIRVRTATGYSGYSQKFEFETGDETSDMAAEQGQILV
Summary of the method: as §1

human EphB1 = molecular target: T3, human EphB1 (Homo sapiens, UniProt P54762)
T3 construct: a protein of the extracellular region of each human Eph receptor fused with the SEAP protein and the His tag; made in house; host or cells: Expi293F cells (culture supernatant)
T3 sequence (P54762 18-540 limits assumed): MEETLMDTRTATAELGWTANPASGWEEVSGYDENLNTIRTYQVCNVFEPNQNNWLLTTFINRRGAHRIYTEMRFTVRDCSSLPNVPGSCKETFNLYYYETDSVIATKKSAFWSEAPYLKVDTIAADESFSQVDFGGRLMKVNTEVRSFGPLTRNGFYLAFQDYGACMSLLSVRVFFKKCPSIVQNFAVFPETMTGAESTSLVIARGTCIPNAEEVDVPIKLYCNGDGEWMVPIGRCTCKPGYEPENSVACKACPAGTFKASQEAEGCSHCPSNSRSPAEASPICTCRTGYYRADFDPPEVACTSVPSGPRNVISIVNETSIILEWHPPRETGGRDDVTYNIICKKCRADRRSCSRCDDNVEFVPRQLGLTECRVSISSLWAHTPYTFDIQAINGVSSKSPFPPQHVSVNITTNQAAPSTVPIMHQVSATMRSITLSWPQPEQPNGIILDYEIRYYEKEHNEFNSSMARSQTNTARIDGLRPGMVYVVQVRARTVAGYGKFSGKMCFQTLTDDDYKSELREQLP
Summary of the method: as §1

Row | Molecule | hEphA1-SEAP-: absorbance at 450 nm, percentage with respect to hEphA4-SEAP-His as 100% (human EphA1) | hEphA6-SEAP-: absorbance at 450 nm, percentage with respect to hEphA4-SEAP-His as 100% (human EphA6) | hEphB1-SEAP-: absorbance at 450 nm, percentage with respect to hEphA4-SEAP-His as 100% (human EphB1)
1 | B1 | 4.9% | 8.8% | 4.6%
2 | B2 | 6.6% | 10.0% | 5.0%
3 | B3 | 4.7% | 8.3% | 4.4%
4 | B4 | 5.1% | 7.9% | 4.9%
5 | B5 | 4.6% | 7.3% | 4.6%
6 | B6 | 5.1% | 9.6% | 5.1%
7 | B7 | 5.2% | 7.0% | 5.1%
8 | B8 | 5.3% | 7.2% | 5.2%
9 | B9 | 4.5% | 6.0% | 4.6%
10 | B10 | 5.7% | 8.9% | 5.4%
11 | B11 | 4.8% | 9.7% | 4.8%
